Results: the supplement of paper PMC7125110
± gives the standard error. For some assays here: Variants at the floor of the assay were thinned out.

B1: glmS ribozyme (parent)
chain: AUAAAAGCGCCAGAACUACAGAAAUGUAGUUGACGAGGAGGAGGUUUAUCGAAUUUUCGGCGGAUGCCUCCAAA

How the values were obtained:
Details in all cases: with glucosamine-6-phosphate
glucosamine-6-phosphate [1] = variants of: B1; experiment: kcat; higher = faster cleavage; RNA array
Procedure, shortened: (§1)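 Tiles of sequenced MiSeq chips were imaged over ~14 h at 37 °C. On them, barcoded ribozyme variants had been transcribed in situ by E. coli RNA polymerase and were tracked via a hybridised Cy3 probe while glucosamine-6-phosphate (40 μM to 10 mM) in HEPES/KCl/Mg(OAc)2 buffer flowed in. Per-tile medians, normalised to baseline and to non-cleaving reference variants, were fit to one- or two-exponential decays for kobs, and weighted Michaelis–Menten fits gave kcat and KM.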

glucosamine-6-phosphate [2] = variants of: B1; experiment: KM; higher = weaker cofactor use; RNA array
Procedure, shortened: as §1

glucosamine-6-phosphate [3] = variants of: B1; experiment: self-cleavage kobs at 160 uM GlcN6P; higher = faster cleavage; RNA array
Procedure, shortened: as §1

glucosamine-6-phosphate [4] = variants of: B1; experiment: self-cleavage kobs at 2500 uM GlcN6P; higher = faster cleavage; RNA array
Procedure, shortened: as §1

glucosamine-6-phosphate [5] = variants of: B1; experiment: self-cleavage kobs at 10000 uM GlcN6P; higher = faster cleavage; RNA array
Procedure, shortened: as §1

glucosamine-6-phosphate [6] = variants of: B1; experiment: self-cleavage kobs at 640 uM GlcN6P; higher = faster cleavage; RNA array
Procedure, shortened: as §1

glucosamine-6-phosphate [7] = variants of: B1; experiment: self-cleavage kobs at 40 uM GlcN6P; higher = faster cleavage; RNA array
Procedure, shortened: as §1

| Variant | kcat (glucosamine-6-phosphate [1]) | KM (glucosamine-6-phosphate [2]) | self-cleavage kobs at 160 uM GlcN6P (glucosamine-6-phosphate [3]) | self-cleavage kobs at 2500 uM GlcN6P (glucosamine-6-phosphate [4]) | self-cleavage kobs at 10000 uM GlcN6P (glucosamine-6-phosphate [5]) | self-cleavage kobs at 640 uM GlcN6P (glucosamine-6-phosphate [6]) | self-cleavage kobs at 40 uM GlcN6P (glucosamine-6-phosphate [7]) |
| --- | --- | --- | --- | --- | --- | --- | --- |
| A33U A39U | 5.86e-05 ± 3e-06 s⁻¹ | 4820 ± 620 µM | < 1e-05 s⁻¹ | 2.03e-05 ± 6.2e-06 s⁻¹ | 3.95e-05 ± 5.5e-06 s⁻¹ |  |  |
| G32U U57C | 4.06e-05 ± 2.6e-06 s⁻¹ | 2420 ± 550 µM |  |  | 3.26e-05 ± 8.4e-06 s⁻¹ |  |  |
| A33C G41U | < 1e-05 s⁻¹ |  |  |  |  | < 1e-05 s⁻¹ |  |
| A33G A64G | < 1e-05 s⁻¹ | 484 ± 28 µM |  |  | < 1e-05 s⁻¹ |  | < 1e-05 s⁻¹ |
| U31G U54C | 0.014 ± 0.0061 s⁻¹ |  | 0.000516 ± 0.00013 s⁻¹ | 0.00559 ± 0.00098 s⁻¹ | 0.0136 ± 0.0038 s⁻¹ | 0.00289 ± 0.00053 s⁻¹ | 0.000233 ± 4e-05 s⁻¹ |
| A33U U69A | 2.24e-05 ± 3e-06 s⁻¹ |  |  |  |  |  | < 1e-05 s⁻¹ |
| A33U A53U | 4.9e-05 ± 3.4e-06 s⁻¹ | 2490 ± 550 µM | < 1e-05 s⁻¹ | 2.34e-05 ± 1e-05 s⁻¹ | 3.95e-05 ± 9.4e-06 s⁻¹ |  | < 1e-05 s⁻¹ |
| C34A C71G | 1.15e-05 ± 3.9e-06 s⁻¹ |  | < 1e-05 s⁻¹ |  |  |  |  |
| G35C C50G G60U | 3.38e-05 ± 1.4e-05 s⁻¹ |  | 5.86e-05 ± 1.9e-05 s⁻¹ |  |  |  |  |
| G32A U54A C67G | 0.000168 ± 2.5e-05 s⁻¹ | 216 ± 100 µM | 8.09e-05 ± 1.6e-05 s⁻¹ | 0.000137 ± 2.7e-05 s⁻¹ | 0.00018 ± 3.3e-05 s⁻¹ |  |  |
| A33U U56A | 3.49e-05 ± 1.6e-05 s⁻¹ |  |  |  |  |  |  |
| A33U U56G | 3.36e-05 ± 2.8e-06 s⁻¹ | 3370 ± 930 µM |  |  |  |  |  |
| A33C G59U | < 1e-05 s⁻¹ |  | < 1e-05 s⁻¹ |  | < 1e-05 s⁻¹ |  |  |
| A33C U46G | 9.24e-05 ± 1.2e-05 s⁻¹ | 1050 ± 490 µM |  | 8.65e-05 ± 2.1e-05 s⁻¹ | 7.98e-05 ± 1.3e-05 s⁻¹ | 2.94e-05 ± 1.3e-05 s⁻¹ |  |
| U31G G37U C68A | 2.76e-05 ± 6.9e-06 s⁻¹ |  |  |  |  |  |  |
| G32U U54A | 0.00121 ± 4.3e-05 s⁻¹ | 6510 ± 320 µM |  | 0.000344 ± 4.3e-05 s⁻¹ | 0.000726 ± 0.0001 s⁻¹ | 0.000107 ± 1.4e-05 s⁻¹ |  |
| U31G A36C C70G | 7.04e-05 ± 3.2e-05 s⁻¹ |  |  |  |  | 0.000105 ± 4.3e-05 s⁻¹ |  |
| U31G C70G | 0.000132 ± 1.8e-05 s⁻¹ | 595 ± 260 µM | 5.51e-05 ± 2.2e-05 s⁻¹ | 0.000118 ± 3.1e-05 s⁻¹ | 0.000126 ± 1.8e-05 s⁻¹ | 6.05e-05 ± 1.2e-05 s⁻¹ |  |

| Variant | kcat (glucosamine-6-phosphate [1]) | KM (glucosamine-6-phosphate [2]) | self-cleavage kobs at 160 uM GlcN6P (glucosamine-6-phosphate [3]) | self-cleavage kobs at 2500 uM GlcN6P (glucosamine-6-phosphate [4]) | self-cleavage kobs at 10000 uM GlcN6P (glucosamine-6-phosphate [5]) | self-cleavage kobs at 640 uM GlcN6P (glucosamine-6-phosphate [6]) | self-cleavage kobs at 40 uM GlcN6P (glucosamine-6-phosphate [7]) |
| --- | --- | --- | --- | --- | --- | --- | --- |
| G32U A39U C67G | 0.000203 ± 2.3e-05 s⁻¹ | 4340 ± 1100 µM |  | 7.96e-05 ± 1.7e-05 s⁻¹ | 0.00014 ± 2e-05 s⁻¹ |  | < 1e-05 s⁻¹ |
| G32A U54G | 0.00257 ± 0.00027 s⁻¹ | 2600 ± 410 µM | 0.000162 ± 2.6e-05 s⁻¹ | 0.00121 ± 0.00012 s⁻¹ | 0.00207 ± 0.00024 s⁻¹ | 0.000536 ± 5.3e-05 s⁻¹ | 3.07e-05 ± 7.9e-06 s⁻¹ |
| U31G G37A | 0.00148 ± 0.00038 s⁻¹ | 5250 ± 1900 µM | 6.42e-05 ± 1.6e-05 s⁻¹ | 0.000466 ± 7.3e-05 s⁻¹ | 0.000999 ± 0.00019 s⁻¹ | 0.000144 ± 2.8e-05 s⁻¹ |  |
| A33G C50G | 0.000122 ± 3.3e-05 s⁻¹ |  | 7.8e-05 ± 1.6e-05 s⁻¹ | 0.000102 ± 1.6e-05 s⁻¹ |  | 0.000161 ± 2.3e-05 s⁻¹ |  |
| G32A U46C | 0.000236 ± 2.1e-05 s⁻¹ | 1770 ± 290 µM |  | 0.000126 ± 2.3e-05 s⁻¹ | 0.000209 ± 3.3e-05 s⁻¹ | 6.49e-05 ± 8.9e-06 s⁻¹ |  |
| G32A U46G | 0.000631 ± 7.4e-05 s⁻¹ | 3220 ± 660 µM |  | 0.000303 ± 5.6e-05 s⁻¹ | 0.000468 ± 6.8e-05 s⁻¹ | 9.72e-05 ± 1.8e-05 s⁻¹ |  |
| G32A U46A | 0.000607 ± 2.1e-05 s⁻¹ |  |  | 7.83e-05 ± 2.1e-05 s⁻¹ | 0.000226 ± 2.7e-05 s⁻¹ | 2.22e-05 ± 1.1e-05 s⁻¹ |  |
| U31G A64G | 0.0127 ± 0.0021 s⁻¹ | 1620 ± 370 µM | 0.000974 ± 0.00016 s⁻¹ | 0.00704 ± 0.0013 s⁻¹ | 0.0116 ± 0.0017 s⁻¹ | 0.00368 ± 0.00071 s⁻¹ | 0.000372 ± 5.2e-05 s⁻¹ |
| C34A A36U | < 1e-05 s⁻¹ |  |  | < 1e-05 s⁻¹ | < 1e-05 s⁻¹ | < 1e-05 s⁻¹ | < 1e-05 s⁻¹ |
| G32U U55G | 0.000798 ± 0.0002 s⁻¹ | 3110 ± 1400 µM |  | 0.000274 ± 6.5e-05 s⁻¹ | 0.000652 ± 9e-05 s⁻¹ | 0.000151 ± 2.5e-05 s⁻¹ |  |
| G32C C67U | 2.59e-05 ± 7.6e-07 s⁻¹ | 885 ± 190 µM |  |  | 2.39e-05 ± 5.6e-06 s⁻¹ |  |  |
| G35A C50G U69A | 0.000277 ± 5.3e-05 s⁻¹ |  | 0.000465 ± 0.00015 s⁻¹ | 0.000206 ± 7.8e-05 s⁻¹ | 0.000278 ± 5.3e-05 s⁻¹ | 0.000501 ± 0.00021 s⁻¹ | 0.000149 ± 3.4e-05 s⁻¹ |
| G32U U69A | 9.32e-05 ± 6.2e-06 s⁻¹ | 142 ± 64 µM |  | 9.1e-05 ± 1.4e-05 s⁻¹ | 8.84e-05 ± 1.1e-05 s⁻¹ | 8.92e-05 ± 1.9e-05 s⁻¹ |  |
| G32A A33U | 5.7e-05 ± 3e-06 s⁻¹ | 4530 ± 700 µM |  |  | 3.92e-05 ± 6.3e-06 s⁻¹ |  |  |
| G32A A33G | 1.05e-05 ± 2.6e-06 s⁻¹ |  |  |  |  |  | < 1e-05 s⁻¹ |
| C34U G51A | 5.64e-05 ± 4.4e-06 s⁻¹ | 2710 ± 750 µM |  |  | 4.45e-05 ± 8.4e-06 s⁻¹ |  |  |
| A33U C67G C68G | 9.15e-05 ± 1.3e-05 s⁻¹ |  | 4.67e-05 ± 1.9e-05 s⁻¹ | 9.54e-05 ± 1.6e-05 s⁻¹ | 7.94e-05 ± 2e-05 s⁻¹ | 0.000106 ± 1.7e-05 s⁻¹ | 6.63e-05 ± 2e-05 s⁻¹ |
